Laboratory results published in paper PMC12680531.
Numbering of substitutions follows the chain as printed. In names and notes the source's numbering stands. Values belong to the binder of their own block, whether it stands above or below them.

Biological target: T1, cell surface TM4SF4 of human cancer cell lines, P48230
T1 chain: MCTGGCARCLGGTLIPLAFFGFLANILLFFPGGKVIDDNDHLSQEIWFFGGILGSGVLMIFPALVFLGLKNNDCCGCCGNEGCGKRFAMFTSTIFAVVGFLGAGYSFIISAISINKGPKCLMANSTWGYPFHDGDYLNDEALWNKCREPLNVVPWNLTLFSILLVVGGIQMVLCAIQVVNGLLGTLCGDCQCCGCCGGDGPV
Experiment: flow cytometry on cells
Conditions: chain shown with the change, n = 3, parent: est. 100, read off a plot

percent of parent (A549 cells): 97%
percent of parent (Calu-3 cells): 87%
B1: humanized 2B7 antibody Hz2B7-1.1 L:N31V (protein)
chain 1: EITLKESGPTLVKPTQTLTLTCTFSGFSLSTYGIGVSWIRQPPGKALEWLAHIWWNDNKYYNTALKSRLTITKDTSKNQVVLTMTNMDPVDTATYYCARKEGSSAPFAYWGQGTLVTVSS
chain 2: DIVMTQSPDSLAVSLGERATINCKSSQSLLVSSNQKNYLAWYQQKPGQPPKLLIYFASTRESGVPDRFSGSGSGTDFTLTISLMQAEDVAVYYCQQHYRTPPTFGQGTKVEIK

percent of parent (A549 cells): 130%
percent of parent (Calu-3 cells): 100%
B2: humanized 2B7 antibody Hz2B7-1.1 L:N31F (protein)
chain 1: B1 chain 1
chain 2: B1 chain 2 with V31F
